Measurements reported in IntAct's records for PubMed 20581830.

B1: Interferon regulatory factor 3 (Homo sapiens), Q14653 (parent)
chain: MGTPKPRILPWLVSQLDLGQLEGVAWVNKSRTRFRIPWKHGLRQDAQQEDFGIFQAWAEATGAYVPGRDKPDLPTWKRNFRSALNRKEGLRLAEDRSKDPHDPHKIYEFVNSGVGDFSQPDTSPDTNGGGSTSDTQEDILDELLGNMVLAPLPDPGPPSLAVAPEPCPQPLRSPSLDNPTPFPNLGPSENPLKRLLVPGEEWEFEVTAFYRGRQVFQQTISCPEGLRLVGSEVGDRTLPGWPVTLPDPGMSLTDRGVMSYVRHVLSCLGGGLALWRAGQWLWAQRLGHCHTYWAVSEELLPNSGHGPDGEVPKDKEGGVFDLGPFIVDLITFTEGSGRSPRYALWFCVGESWPQDQPWTKRLVMVKVVPTCLRALVEMARVGGASSLENTVDLHISNSHPLSLTSDQYKAYLQDLVEGMDFQGPGES

Variants of: B1
Conditions: with cbp_human CREBBP

Variant | effect of a mutation on the interaction
S396D;S398D;S402D;T404D;S405D | increasing interaction strength
